Test results as given in patent publication US20200079861A1 (AGENUS, published 2020).

T1: GITR antigen (R&D systems, disulfide-linked homodimer; 689-GR) (human, UniProt Q9Y5U5 26-161, R-PE labeled in the suspension array assay; unlabeled and amine-coupled to the chip in SPR)
T1 construct: also called R-PE labeled GITR antigen
T1 sequence (looked up): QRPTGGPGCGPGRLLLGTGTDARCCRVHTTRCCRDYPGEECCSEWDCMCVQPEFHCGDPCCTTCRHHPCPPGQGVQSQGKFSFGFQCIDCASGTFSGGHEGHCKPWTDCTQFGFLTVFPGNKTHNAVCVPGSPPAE

T2: human GITR G63A mutant (on 1624-5 cells) (human, UniProt Q9Y5U5 26-241)
T2 chain: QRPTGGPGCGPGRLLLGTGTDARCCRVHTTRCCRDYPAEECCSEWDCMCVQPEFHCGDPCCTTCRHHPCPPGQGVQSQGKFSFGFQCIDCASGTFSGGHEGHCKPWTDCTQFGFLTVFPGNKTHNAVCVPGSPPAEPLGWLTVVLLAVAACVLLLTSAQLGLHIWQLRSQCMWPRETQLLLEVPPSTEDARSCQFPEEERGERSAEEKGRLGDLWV

T3: human GITR (on cells) (human, UniProt Q9Y5U5 26-241)
T3 construct: Swiss-Prot Q9Y5U5-1 is printed; also called huGITR; wild type human GITR
T3 sequence: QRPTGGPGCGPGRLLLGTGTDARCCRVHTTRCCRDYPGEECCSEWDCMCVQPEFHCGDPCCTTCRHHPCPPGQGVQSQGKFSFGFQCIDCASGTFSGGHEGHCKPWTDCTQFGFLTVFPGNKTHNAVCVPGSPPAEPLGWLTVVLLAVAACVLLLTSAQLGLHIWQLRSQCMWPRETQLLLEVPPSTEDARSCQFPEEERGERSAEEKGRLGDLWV

T4: V1M/Q62P/S63G cynomolgus GITR (on 1624-5 cells) (cynomolgus, UniProt Q9Y5U5 26-241 (human entry))
T4 construct: V1M lies in the signal peptide; also called mutant cynomolgus GITR V1M/Q62P/S63G
T4 chain: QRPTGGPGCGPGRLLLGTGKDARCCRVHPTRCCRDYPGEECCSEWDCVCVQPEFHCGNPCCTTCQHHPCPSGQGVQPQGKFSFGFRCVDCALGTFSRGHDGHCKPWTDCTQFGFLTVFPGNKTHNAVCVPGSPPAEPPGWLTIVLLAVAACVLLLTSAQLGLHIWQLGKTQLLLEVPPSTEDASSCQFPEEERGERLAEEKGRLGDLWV

T5: V1M cynomolgus GITR (on 1624-5 cells) (cynomolgus, UniProt Q9Y5U5 26-241 (human entry))
T5 chain: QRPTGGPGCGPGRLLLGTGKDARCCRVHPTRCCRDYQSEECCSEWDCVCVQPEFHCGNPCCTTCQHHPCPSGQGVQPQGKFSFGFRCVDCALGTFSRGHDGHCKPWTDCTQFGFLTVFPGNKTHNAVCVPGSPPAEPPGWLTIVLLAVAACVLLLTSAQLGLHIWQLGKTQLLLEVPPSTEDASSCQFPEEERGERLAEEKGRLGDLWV

T6: human GITR D60A mutant (on 1624-5 cells) (human, UniProt Q9Y5U5 26-241)
T6 chain: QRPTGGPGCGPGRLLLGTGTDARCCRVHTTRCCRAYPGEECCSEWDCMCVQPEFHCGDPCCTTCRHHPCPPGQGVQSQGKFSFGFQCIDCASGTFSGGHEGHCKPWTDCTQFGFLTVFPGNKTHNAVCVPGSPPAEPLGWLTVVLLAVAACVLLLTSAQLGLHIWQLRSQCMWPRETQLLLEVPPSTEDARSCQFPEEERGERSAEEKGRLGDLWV

T7: human OX40 (on cells) (human, UniProt P43489 29-277)
T7 construct: also called huOX40; TNFRSF4
T7 sequence: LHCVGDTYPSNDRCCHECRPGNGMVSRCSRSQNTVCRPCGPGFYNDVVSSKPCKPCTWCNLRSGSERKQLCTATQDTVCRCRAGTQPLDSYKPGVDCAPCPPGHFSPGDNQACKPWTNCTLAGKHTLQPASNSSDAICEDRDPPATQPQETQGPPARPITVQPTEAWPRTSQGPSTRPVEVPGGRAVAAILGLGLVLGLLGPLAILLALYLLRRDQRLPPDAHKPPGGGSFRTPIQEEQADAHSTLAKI


Columns and labels:
[1] = target: T1, GITR antigen (R&D systems, …); assay: Luminex suspension array, competitor at 20 µg/ml pre-incubated with R-PE labeled GITR antigen; captured antibody 231-32-15
Description: (§1) The bead mixture and the antigen/antibody mixture were mixed 1:1 (20 μl from each) and incubated for one additional hour under shaking conditions (20° C., 650 rpm). Directly before the measurement, 40 μl of assay buffer was added to each well and analysis was performed using a Luminex® 200 system (Millipore) and a readout of 100 beads in 48 μl sample volume. Binding was determined using the MFI values of the non-competed control (100% binding, only assay buffer as competing compound).

[2] = target: T2, human GITR G63A mutant (on 1624-5 cells); assay: flow cytometry on 1624-5 cells, 2 µg/ml antibody, MFI ratio to polyclonal antibody, mutant versus wild type
Description: (§2) An average MFI ratio (“AMFI ratio”) was calculated based on the individual MFI ratios for all the mutants. […] An individual MFI ratio that is between 30% and 60% of the AMFI ratio is represented by “+/−” in FIG. 10A. An individual MFI ratio that is below 30% of the AMFI ratio is represented by “−” in FIG. 10A.
(§3) All the mean fluorescence intensity (MFI) values were calculated as the mean of two measurements.

human GITR (on cells) = target: T3, human GITR (on cells); assay: flow cytometry on Jurkat cells expressing GITR only
Description: (§4) Hut102 cells (human T cell lymphoma, ATCC) were incubated for 72 hours in RPMI media, supplemented with 1 μg/ml phytohaemagglutinin (PHA) and 10% heat-inactivated FBS, at 37° C. and 5% CO₂ to induce GITR and OX40 expression. Cells ectopically expressing GITR or OX40 were generated by transduction of lentiviral vectors (EF1a promoter) into Jurkat cells. Stable clones were generated via single-cell sorting (FACS ARIA Fusion). Expression was verified by flow cytometry. For binding analysis, stable Jurkat cells or activated Hut102 cells were incubated with test antibodies (12-point dose titration, 0.01-10,000 ng/ml) diluted in FACS buffer (PBS, 2 mM EDTA, 0.5% BSA, pH 7.2) for 30 minutes at 4° C. Samples were washed two times in FACS buffer and then incubated with APC-conjugated mouse anti-human kappa detection antibody (Life Technologies, HP6062) for 30 minutes at 4° C. Samples were then washed two times and analyzed using the LSRFortessa flow cytometer (BD Biosciences). FACS plots were analyzed using a combination of FACS DIVA and WEHI Weasel software. Data were plotted with Graphpad Prism software.

[3] = target: T4, V1M/Q62P/S63G cynomolgus GITR (on …); assay: flow cytometry on 1624-5 cells, 2 µg/ml antibody
Description: (§5) After washing, the cells were incubated with a secondary anti-IgG antibody if necessary for detection (APC conjugated; BD Cat no. 109-136-097) diluted in 100 μl FACS buffer (PBS+2% FCS) for 20 min at 4° C. The cells were then washed and acquired using a flow cytometer (BD Biosciences). The mean fluorescence intensity (MFI) value of the tested monoclonal antibody was divided by the MFI value of the polyclonal antibody, generating an MFI ratio (monoclonal antibody/polyclonal antibody) for individual GITR alanine mutants. An average MFI ratio (“AMFI ratio”) was calculated based on the individual MFI ratios for all the mutants. […] An individual MFI ratio that is between 30% and 60% of the AMFI ratio is represented by “+/−” in FIG. 10A. An individual MFI ratio that is below 30% of the AMFI ratio is represented by “−” in FIG. 10A.
(§6) As further evidence for the binding characteristics of the anti-GITR antibodies, the binding of the antibodies to cynomolgus GITR was compared. The immature protein of cynomolgus GITR comprises the amino acid sequence of SEQ ID NO:44.

[4] = target: T5, V1M cynomolgus GITR (on 1624-5 cells); assay: flow cytometry on 1624-5 cells
Description: as §5, §6

[5] = target: T6, human GITR D60A mutant (on 1624-5 cells); assay: flow cytometry on 1624-5 cells, 2 µg/ml antibody, MFI ratio to polyclonal antibody, mutant versus wild type
Description: as §2, §3

[6] = target: T1, GITR antigen (R&D systems, …); assay: Luminex suspension array, m6C8 captured on beads, R-PE labeled GITR antigen; data not shown
Description: as §1

[7] = target: T1, GITR antigen (R&D systems, …); assay: SPR (BIAcore), GITR antigen immobilized on the chip, antibody at 300 nM
Description: Flow cell 2 contained GITR antigen in low density (667 RU), medium density was assessed in flow cell 3 (1595 RU) and in flow cell 4, high density was achieved (4371 RU). In flow cell 1, ovalbumin (1289 RU, Pierce ThermoFisher 77120) was immobilized for reference. Immobilization was performed according to a standard protocol from the manufacturer (GE Healthcare) for amine coupling (activation of surface with 0.4 M EDC and 0.1 M NHS, GE Healthcare Amine coupling kit, BR-1000-50). […] Afterwards anti-GITR antibodies were run through the different surfaces at a concentration of 300 nM (45 μg/ml) for 240 seconds at 5 μl/min. […] A dissociation time of 60 seconds was included before adding the competing antibody (300 nM, 5 μl/min).

human OX40 (on cells) = target: T7, human OX40 (on cells); assay: flow cytometry on Jurkat cells expressing OX40 only
Description: as §4

binding result [1] | percentage of reduction in binding relative to wild type GITR [2] [%] | binding result [3] | binding result [4] | percentage of reduction in binding relative to wild type GITR [5] [%] | Binder | also measured
binds | 59 | binds | no binding (tested: 2 µg/ml) | – | pab1876 (antibody, human IgG1, V domains shown, also called bivalent monospecific antibody pab1876; pab1876w (same chains without light chain T109S)) VH: QVQLVQSGAEVKKPGASVKVSCKGSGYTFTDYAMYWVRQAPGQGLEWIGVIRTYSGDVTYNQKFKDRATMTVDKSISTAYMELSRLRSDDTAVYYCAKSGTVRGFAYWGQGTLVTVSS VL: DIVMTQSPDSLAVSLGERATINCKSSQSLLNSGNQKNYLTWYQQKPGQPPKLLIYWASTRESGVPDRFSGSGSGTDFTLTISSLQAEDVAVYHCQNDYSYPYTFGQGTKLEIKR | binding result (human GITR (on cells)): binds
binds | – | – | – | – | pab1875 (antibody, V domains shown) VH: QVQLVQSGAEVKKPGASVKVSCKGSGYTFTDYAMYWVRQAPGQGLEWIGVIRTYSGDVTYNQKFKDRATMTVDKSISTAYMELSRLRSDDTAVYYCAKSGTVRGFAYWGQGTLVTVSS VL: DIVMTQSPPTLSLSPGERVTLSCKSSQSLLNSGNQKNYLTWYQQKPGQAPRLLIYWASTRESGIPARFSGSGSGTDFTLTISSLQPEDFAVYHCQNDYSYPYTFGQGTKLEIK | –
– | – | – | – | 10 | m6C8 (antibody, V domains shown, Generated from the variable regions of antibody 6C8 of WO 2006/105021; also called murine antibody 6C8) VH: QVTLKESGPGILKPSQTLSLTCSFSGFSLSTSGMGVGWIRQPSGKGLEWLAHIWWDDDKYYNPSLKSQLTISKDTSRNQVFLKITSVDTADAATYYCARTRRYFPFAYWGQGTLVTVSS VL: DIVMTQSQKFMSTSVGDRVSVTCKASQNVGTNVAWYQQKPGQSPKALIYSASYRYSGVPDRFTGSGSGTDFTLTINNVHSEDLAEYFCQQYNTDPLTFGAGTKLEIK | percentage of increase in binding relative to wild type GITR [2]: 62%; binding result [6]: binds
– | 37 | binds | no binding (tested: 2 µg/ml) | 82 | chimeric parental 231-32-15 antibody (antibody, V domains shown, Chimeric antibody) VH: QVQLLQSGTELVRPGVSVKISCKGSGYTFTDYAMYWVKQSHAKSLEWIGVIRTYSGDVTYNQKFKDKATMTVDKSSSIAYMELARLSSEDSAIYYCAKSGTVRGFAYWGQGTLVTVSS VL: DIVMTQSPSSLTVTAGEKVIMSCKSSQSLLNSGNQKNYLTWYQQKPGQPPKLLIYWASTRESGVPDRFTGSGSGTDFTLTISSVQAEDLAVYHCQNDYSYPYTFGGGTKLEIK | binding result [7]: binds
– | – | – | – | – | pab2049 (antibody, human IgG1, V domains shown, also called bivalent monospecific antibody pab2049; pab2049w (same chains without light chain T109S)) VH: EVQLVESGGGLVQPGGSLKLSCAASGFTFSGSAMHWVRQASGKGLEWVGRIRSKANSYATAYAASVKGRFTISRDDSKNTAYLQMNSLKTEDTAVYYCTSGIYDSSGYDYWGQGTLVTVSS VL: not shown | binding result (human OX40 (on cells)): binds
